In data set [1] the target is von Willebrand factor (vWF) (Homo sapiens, UniProt P04275 P04275:764-2813). Nature of the data set: filter; text gives value as affinity of ARC1779 for vWF; PBS, 0.1 mg/ml BSA, room temperature 30 min. Conditions: label: 5'-32P. Here is the method:
For binding assays, the oligonucleotide core of ARC1779 was synthesized with a 5′-terminal hydroxyl moiety instead of a 5′ hexylamine and 20 kDa PEG and subsequently 5′-end labeled with γ-³²P ATP using T4 polynucleotide kinase (New England BioLabs, Beverly, Mass.). Aptamer was incubated at room temperature for 30 minutes in PBS containing 0.1 mg/ml BSA (as a specificity control) and increasing concentrations of human VWF. Bound complexes were separated from free DNA using an acrylic mini-dot blot apparatus (Schleicher and Schuell, Keene, N.H.) and a membrane sandwich (top to bottom) of Protran BA85 0.45 μm Nitrocellulose Membrane (Schleicher and Schuell, Keene, N.H.), Hybond P Nylon Membrane (Amersham, Piscataway, N.J.), and 3mM filter paper (Whatman, Florham Park, N.J.) all pre-wet with Dulbecco's PBS. Radioactivity associated with protein:DNA complexes (nitrocellulose) and free DNA (nylon) was quantified on a Storm 860 Phosphorimager (Molecular Dynamics/Amersham, Piscataway, N.J.). Binding constants were determined by fitting the fraction of aptamer bound as a function of the concentration of vWF.

Data set [2] has as its target von Willebrand factor (vWF), A1 domain sites in plasma/blood (Homo sapiens, UniProt P04275 P04275:764-2813). Description: free vWF A1 sites activity ELISA, plasma after dosing of healthy volunteers, Emax fit; 0.22 ug/mL; EC90 151 nM. The following applies: protein: extract. (In general: An ELISA detects its analyte on a solid surface through an enzyme-linked reagent.)

One may read the Kd as a measure of binding affinity in units of concentration. High values mean weaker binding, low ones tighter binding. In general, EC50 refers to the concentration at which the effect is half-maximal.

Sequence of von Willebrand factor (vWF), A1 domain sites in plasma/blood (P04275 764-2813, one chain of several): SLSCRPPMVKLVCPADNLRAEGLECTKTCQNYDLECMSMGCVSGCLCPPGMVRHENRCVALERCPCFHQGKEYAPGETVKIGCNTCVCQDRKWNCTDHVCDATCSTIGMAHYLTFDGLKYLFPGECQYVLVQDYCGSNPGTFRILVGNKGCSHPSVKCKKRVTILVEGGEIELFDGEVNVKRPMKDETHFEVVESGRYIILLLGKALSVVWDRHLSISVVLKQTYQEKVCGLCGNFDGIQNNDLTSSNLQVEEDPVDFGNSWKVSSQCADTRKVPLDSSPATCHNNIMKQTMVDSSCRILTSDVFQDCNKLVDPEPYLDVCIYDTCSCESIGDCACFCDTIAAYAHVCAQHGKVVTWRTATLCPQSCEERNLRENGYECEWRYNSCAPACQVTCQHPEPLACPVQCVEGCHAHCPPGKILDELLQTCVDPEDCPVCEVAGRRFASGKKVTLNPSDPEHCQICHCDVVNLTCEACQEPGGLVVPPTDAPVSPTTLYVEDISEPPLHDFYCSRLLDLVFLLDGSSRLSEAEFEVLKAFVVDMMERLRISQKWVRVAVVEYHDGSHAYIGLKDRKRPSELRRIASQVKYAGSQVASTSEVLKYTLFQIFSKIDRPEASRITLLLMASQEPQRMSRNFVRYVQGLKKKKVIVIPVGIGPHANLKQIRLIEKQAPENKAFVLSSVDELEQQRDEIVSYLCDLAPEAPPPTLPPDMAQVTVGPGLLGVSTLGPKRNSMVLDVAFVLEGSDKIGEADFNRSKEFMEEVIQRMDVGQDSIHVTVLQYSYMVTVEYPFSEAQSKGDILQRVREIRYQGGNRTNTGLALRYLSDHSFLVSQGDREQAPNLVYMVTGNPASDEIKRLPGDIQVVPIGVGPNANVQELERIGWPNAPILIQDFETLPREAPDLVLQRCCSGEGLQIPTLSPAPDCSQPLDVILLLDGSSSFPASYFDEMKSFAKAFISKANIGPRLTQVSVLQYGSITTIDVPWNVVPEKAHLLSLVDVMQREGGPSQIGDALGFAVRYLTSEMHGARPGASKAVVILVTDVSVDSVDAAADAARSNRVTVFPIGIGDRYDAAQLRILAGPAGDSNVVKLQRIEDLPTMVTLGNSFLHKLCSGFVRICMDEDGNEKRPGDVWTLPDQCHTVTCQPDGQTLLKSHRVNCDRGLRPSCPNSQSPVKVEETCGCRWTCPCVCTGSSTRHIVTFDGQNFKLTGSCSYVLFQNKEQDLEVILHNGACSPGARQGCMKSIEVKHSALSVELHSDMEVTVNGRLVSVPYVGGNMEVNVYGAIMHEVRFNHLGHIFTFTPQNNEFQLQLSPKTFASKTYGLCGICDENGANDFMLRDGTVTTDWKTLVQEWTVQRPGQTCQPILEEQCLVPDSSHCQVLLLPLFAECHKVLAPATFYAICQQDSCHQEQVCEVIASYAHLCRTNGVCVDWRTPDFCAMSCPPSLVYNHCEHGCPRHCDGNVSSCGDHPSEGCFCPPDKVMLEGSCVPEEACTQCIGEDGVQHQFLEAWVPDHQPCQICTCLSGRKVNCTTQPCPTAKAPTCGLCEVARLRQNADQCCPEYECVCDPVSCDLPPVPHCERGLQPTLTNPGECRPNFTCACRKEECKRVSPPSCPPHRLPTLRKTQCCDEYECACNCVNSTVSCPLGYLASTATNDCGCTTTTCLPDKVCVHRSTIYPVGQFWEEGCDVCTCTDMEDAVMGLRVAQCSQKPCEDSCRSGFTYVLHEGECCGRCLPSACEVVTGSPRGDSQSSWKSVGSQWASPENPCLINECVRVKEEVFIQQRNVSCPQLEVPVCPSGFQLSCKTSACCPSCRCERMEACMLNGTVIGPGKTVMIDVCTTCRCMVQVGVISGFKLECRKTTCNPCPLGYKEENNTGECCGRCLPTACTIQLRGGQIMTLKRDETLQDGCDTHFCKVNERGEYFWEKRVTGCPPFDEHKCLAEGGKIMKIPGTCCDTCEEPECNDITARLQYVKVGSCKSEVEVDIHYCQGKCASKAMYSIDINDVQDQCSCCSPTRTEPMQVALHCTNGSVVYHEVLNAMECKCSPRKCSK
Sequence of von Willebrand factor (vWF) (P04275 764-2813, one chain of several): as above

B1: ARC1779 oligonucleotide core (no PEG) (mixed)
mixed: GCGUGCAGUGCCUUCGGCCGTGCGGTGCCUCCGUCACGC
modifications: same 2'-OMe/deoxy/PS/3'-inverted dT pattern as ARC1779, 5'-OH instead of hexylamine-PEG
As to B1, the Kd in data set [1] was around 2 nM.

B2: ARC1779 (mixed)
mixed: B1 mixed
modifications: mGmCmGmUdGdCdAmGmUmGmCmCmUmUmCmGmGmCdCmG-s-dTmGdCdGdGdTmGmCdCmUdCdCmGmUdCmAmCmGmC-3T (m 2'-OMe; d deoxy; s PS; 3T inverted dT), 5'-20 kDa PEG
In data set [2], B2 gave an EC50 of 17 nM.

The values are drawn from US20090203766, “vWF aptamer formulations and methods for use” (Archemix Corp., published 2009).
